# Source: patent US20240287172A1 (SCIRHOM, published 2024)
# Numbering of substitutions follows the chain as printed.
# T1: miR2-FL-WT-T7 (mouse, UniProt Q80WQ6 1-827)
# T1 construct: on MEF-DKO cells
# T1 sequence: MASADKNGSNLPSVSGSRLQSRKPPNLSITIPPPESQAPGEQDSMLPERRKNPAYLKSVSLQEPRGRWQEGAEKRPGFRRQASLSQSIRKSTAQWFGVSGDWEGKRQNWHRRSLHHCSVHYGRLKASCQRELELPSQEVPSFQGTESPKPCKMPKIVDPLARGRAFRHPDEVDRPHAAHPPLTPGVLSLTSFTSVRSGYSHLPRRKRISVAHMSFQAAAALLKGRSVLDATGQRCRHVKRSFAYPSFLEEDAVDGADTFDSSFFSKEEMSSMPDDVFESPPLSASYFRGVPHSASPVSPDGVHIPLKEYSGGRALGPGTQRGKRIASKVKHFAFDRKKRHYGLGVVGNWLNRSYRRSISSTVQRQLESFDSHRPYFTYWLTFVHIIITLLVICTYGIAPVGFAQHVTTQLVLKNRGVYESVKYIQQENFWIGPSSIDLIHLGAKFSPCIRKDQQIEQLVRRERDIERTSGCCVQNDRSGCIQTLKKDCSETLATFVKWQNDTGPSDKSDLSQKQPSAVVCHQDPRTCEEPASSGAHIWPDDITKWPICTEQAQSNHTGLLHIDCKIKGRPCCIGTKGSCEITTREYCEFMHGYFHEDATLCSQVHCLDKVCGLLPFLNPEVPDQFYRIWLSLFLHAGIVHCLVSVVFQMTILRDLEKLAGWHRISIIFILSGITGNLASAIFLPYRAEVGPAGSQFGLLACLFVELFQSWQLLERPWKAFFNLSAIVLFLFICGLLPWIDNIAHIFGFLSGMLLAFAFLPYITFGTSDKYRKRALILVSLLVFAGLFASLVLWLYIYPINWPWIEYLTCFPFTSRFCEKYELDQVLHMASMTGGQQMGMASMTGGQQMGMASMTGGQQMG
# T2: hiR2-FL-R543A-T7 (human, UniProt Q6PJF5 1-856)
# T2 sequence: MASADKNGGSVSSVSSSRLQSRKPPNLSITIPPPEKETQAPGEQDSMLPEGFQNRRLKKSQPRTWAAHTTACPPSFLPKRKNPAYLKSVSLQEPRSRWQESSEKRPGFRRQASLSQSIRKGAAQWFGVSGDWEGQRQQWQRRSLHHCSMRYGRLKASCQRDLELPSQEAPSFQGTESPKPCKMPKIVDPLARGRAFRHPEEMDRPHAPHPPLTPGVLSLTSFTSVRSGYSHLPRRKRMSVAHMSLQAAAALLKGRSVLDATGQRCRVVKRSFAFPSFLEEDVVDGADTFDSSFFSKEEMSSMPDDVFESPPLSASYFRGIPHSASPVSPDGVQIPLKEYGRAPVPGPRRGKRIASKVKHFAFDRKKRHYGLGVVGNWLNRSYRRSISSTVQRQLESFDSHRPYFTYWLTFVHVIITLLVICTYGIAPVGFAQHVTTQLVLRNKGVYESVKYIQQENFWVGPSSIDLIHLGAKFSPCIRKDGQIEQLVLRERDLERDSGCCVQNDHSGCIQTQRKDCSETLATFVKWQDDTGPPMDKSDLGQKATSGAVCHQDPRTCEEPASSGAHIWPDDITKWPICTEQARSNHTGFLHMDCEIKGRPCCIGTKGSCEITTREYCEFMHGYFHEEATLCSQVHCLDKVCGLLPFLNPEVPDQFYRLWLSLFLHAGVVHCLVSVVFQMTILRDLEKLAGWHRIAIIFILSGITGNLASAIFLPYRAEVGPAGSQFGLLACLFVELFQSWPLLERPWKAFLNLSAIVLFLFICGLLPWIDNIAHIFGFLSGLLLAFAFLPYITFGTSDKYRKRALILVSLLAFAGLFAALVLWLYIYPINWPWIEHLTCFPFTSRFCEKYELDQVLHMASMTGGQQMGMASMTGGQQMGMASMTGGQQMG
# B1: antibody 16 (antibody, V domains shown)
# VH: QVTLKESGPGILQPSQTLSLTCSFSGFSLSTFALGVGWIRQPSGRGLEWLAHIWWDDDKYYNPALKSRLTISKDTSKNHVFLKIANVDTADTATYYCARITTYYYGMDYWGQGTSVTVSS
# VL: DIVLSQSPATLSVTPGDSVSLFCRASQSIGNHLHWYQQESHASPRLLIKYASQSISGIPSRFSGSGSGTDFTLSINSVETEDFGMYFCQQSYNWPLTFGAGTKLELK
# notes: mouse IgG, kappa light chain; also called clone #16; purified antibody 16
# B2: antibody 5 (antibody, V domains shown)
# VH: QVTLKESGPGILQPSQTLSLTCSFSGFSLSTFGMGVGWIRQPSGKGLEWLAHIWWDDEKYYNSALKSRLTISKATSKNQAFLKIANVDTADTATYYCARISNYGSNYWYFNVWGTGTTVTVSS
# VL: QVVLTQSPALMSASPGEKVTMTCSAGSSVSCMYWYQQKPGSSPRVLIYDTSNLASGVPARFTGSGSGTSYSLTISRMEAEDAASYYCQQWNSYPLTFGAGTKLELK
# notes: mouse IgG, kappa light chain; also called clone #5; purified antibody 5
# B3: antibody 43 (antibody, V domains shown)
# VH: B2 VH with T3A, P42S, H52N, E58D, S63P, A74D, T75A, S101G, N111D
# VL: QIVLTQSPAIMSASPGERVTMTCSANSRISYMYWYQQKPGSSPRLLIYDTSNLASGVPVRFSGSGSGTSYSLTISRMEAEDAATYNCQQWSSYPLTFGAGTKLELK
# notes: mouse IgG, kappa light chain; also called clone #43; purified antibody 43
# B4: antibody 42 (antibody, V domains shown)
# VH: B2 VH with F24L, M34R, S63P, A74D, A80V, K83R, S101Q, N111D
# VL: B3 VL with Q1L, R18K, S24G, N26T, Y33F, L45V, M77V, A82V, N86Y, S91N
# notes: mouse IgG, kappa light chain; also called clone #42; purified antibody 42
# B5: antibody 44 (antibody, V domains shown)
# VH: B2 VH with G44E, E58D, S63P, A74D, A80I, A85T, D91E, A98S, S101G, N111D
# VL: QIVLTQSPAVMSASPGEKVTMTCTASSSVYYMYWYQQTPGSSPRLLIYDTSNLASGVPVRFSGSGSGTSYSLTISRMEAEDAATYYCQQWNTYPLTFGAGTKLELK
# notes: mouse IgG, kappa light chain; also called clone #44; purified antibody 44
# B6: antibody 22 (antibody, V domains shown)
# VH: B2 VH with A80V
# VL: B2 VL with C31Y, S84T
# notes: mouse IgG, kappa light chain; also called clone #22; purified antibody 22
# B7: antibody 34 (antibody, V domains shown)
# VH: QVTLKESGPGILQPSQTLSLTCSFSGFSLSTFSLGVGWIRQSSGKGLEWLAHIWWDDEKYYNPALKSRLTISKDTSKNQVFLKIANVDAADTATYYCARAYYSKSYYALDYWGQGTSVTVSS
# VL: DIQMTQSPSSLSASLGERVSLTCRASQEISGYLSWLQQKPDGTIKRLIYAASTLDSGVPKRFSGSRSGSDYSLAISSLESEDFADYYCLQYANFPFTFGSGTKLEIK
# notes: mouse IgG, kappa light chain; also called clone #34; purified antibody 34
# B8: antibody 3 (antibody, V domains shown)
# VH: QVTLKESGPGILQPSQTLSLTCSFSGFSLTTFAMGIGWVRQPSGKGLEWLAHIWWDGEKYNNPVLKSRLTISKDTSKNQVFLRIANVDTPDTATYYCARISSIYYIIDNWGQGTSVTVSS
# VL: B1 VL with S5T, D17H, F22S, G30S, H32N, Q38K, E39K, A42E, A51V
# notes: mouse IgG, kappa light chain; also called clone #3; purified antibody 3
# Molecular target: T1, miR2-FL-WT-T7
# Assay: FACS on MEF-DKO cells
row,Binder,binding result
1,B1,no binding (tested: 3 µg/ml)
2,B2,no binding (tested: 3 µg/ml)
3,B3,no binding (tested: 3 µg/ml)
4,B4,no binding (tested: 3 µg/ml)
5,B5,no binding (tested: 3 µg/ml)
6,B6,no binding (tested: 3 µg/ml)
7,B7,no binding (tested: 3 µg/ml)

# Molecular target: T2, hiR2-FL-R543A-T7
# Assay: FACS on MEF-DKO cells expressing the variant, 3 µg/ml antibody
# Procedure: To pellet cells and remove supernatants, the plates were centrifuged at 1,500 rpm and 4° C. for 3 minutes. For primary staining, cells were resuspended in 100 μl per well of either FACS buffer alone (controls) or the purified antibodies 3, 5, 16, 22, 34, 42, 43, 44, 48, and 50 of the invention at 3 μg/ml in FACS buffer and incubated on ice for 1 hour. Afterwards, plates were centrifuged at 1,500 rpm and 4° C. for 3 minutes and washed twice with 200 μl per well of FACS buffer. For secondary staining, cells were spun down and resuspended in 100 μl per well of PE-conjugated goat anti-mouse IgG F(ab′)2 detection fragment (Dianova, Germany) diluted 1:100 in FACS buffer. Protected from light, the cell suspensions were incubated on ice for 1 hour. Plates were then centrifuged at 1,500 rpm and 4° C. for 3 minutes and washed three times with 200 μl per well of FACS buffer. Finally, cells were resuspended in 150 μl per well of FACS buffer and analyzed using a BD Accuri™ C6 Plus flow cytometer (Becton Dickinson, Germany).
row,Binder,loss of binding vs wild type
1,B8,≥ 30%
2,B2,≥ 60%
3,B3,≥ 95%
4,B4,≥ 60%
5,B5,≥ 95%
6,B6,≥ 60%
7,B7,≥ 95%
